Reference: publication PMC10663608

Molecular target: human EGFR tagged with mTurquoise at the C-terminus (EGFR-mTurquoise) (human) (UniProt P00533)

## EGF ligand from mouse labeled with rhodamine at its N-terminus (rho-mEGF)
  K (resp) of the transducer function for Y1068 phosphorylation (phosphorylation against ligand-bound EGFR fraction in single vesicles) (fraction of ligand-bound receptors): 0.4
  K (resp) of the transducer function for Y1173 phosphorylation (phosphorylation against ligand-bound EGFR fraction in single vesicles) (fraction of ligand-bound receptors): 0.86
